Laboratory results: US20190231872A1 (INDUSTRY ACADEMIC COOPERATION FOUNDATION HALLYM UNIVERSITY, published 2019)
Where two headings read alike, the source gives them in different places.

B1: anti-TM4SF5 monoclonal antibody mEC2-C (antibody, V domains shown)
VH: QVQLEESGPGLVAPSQSLSIICTVSGFSLTSYGVTWVRQPPGKGLEWLGVIWSDGSTNYQSALISRLTISRDNSKSQAFLKLNSLQTDDTATYYCARPSNYYYFDYWGQGTTLTVSS
VL: DIVMTQSPSSLAVSAGERVTLSCKSSQSLFDRRTRKTYLAWYQQKPGQSPKLLISWASTRESGVPDRFTGSGSGTDFTLTISSVQAEDLAVYYCKQSYNLFTFGGGTKLEIK
notes: also called mouse anti-TM4SF5 monoclonal antibody; anti-hTM4SF5 monoclonal antibody
B2: humanized anti-TM4SF5 antibody hEC2-C-2 (antibody, V domains shown)
VH: EVQLVESGGGLVQPGGSLRLSCAASGFSLTSYGVTWVRQAPGKGLEWLGVIWSDGSTNYQSALISRLTISRDNSKNTAYLQMNSLRAEDTAVYYCARPSNYYYFDYWGQGTLVTVSS
VL: DIQMTQSPSSLSASVGDRVTITCKSSQSLFDRRTRKTYLAWYQQKPGKAPKLLISWASTRESGVPSRFSGSGSGTDFTLTISSLQPEDFATYYCKQSYNLFTFGQGTKVEIK
notes: hEC2-C-2 is the clone that was expressed and tested; also called hEC2-C-2 Ab; hEC2-C-2 IgG

How the values were obtained:
hTM4SF5R2-3 peptide [1] = target: T1, hTM4SF5R2-3 peptide (human); assay: ELISA on coated hTM4SF5R2-3, purified antibody titrated
T1 peptide: NRTLWDRCEAPPRV

[2] = target: T2, hTM4SF5EC2-C cyclic peptide (human, cyclic: disulfide bond between the cysteines that replace glycine 133 and valine 156 (3rd and 26th residue of the peptide); biotinylated for SPR); assay: SPR (Reichert SPR 7500DC), biotinylated cyclic peptide on streptavidin chip, antibody 0 to 80 nM, 1:1 binding with mass transfer
T2 construct: Chemically synthesized (Peptron); also called cyclic TM4SF5 peptide; TM4SF5 cyclic peptide
T2 peptide: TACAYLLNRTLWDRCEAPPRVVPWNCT
Protocol: FIG. 6 represents purification and characterization of mouse anti-TM4SF5 monoclonal antibodies recognizing TM4SF5 cyclic peptides. (A) Hydrops abdominis was producted from BALB/c mice by injecting i.p. into the abdominal cavity with hybridoma clone (2A10 clone) derived from FIG. 5. Anti-TM4SF5 monoclonal antibody was purified using protein-A agarose column chromatography and the purified antibody was identified by SDS-PAGE and Coomassie blue staining. (B) The isotype was determined by obtaining titration curves using purified monoclonal antibodies. (C) A binding affinity of monoclonal antibody for cyclic peptide hTM4SF5EC2-C was determined by using ELISA. (D) A binding affinity of monoclonal antibody for cyclic peptide […] was determined by using Reichert Analytical Instruments SPR 7500DC (Reichert). Biotinylated peptides were immobilized on streptavidin chip and the amount of antibody was increased. Kinetic parameters of binding reactions are expressed under sensorgrams.
The affinities of anti-hTM4SF5 monoclonal antibody (mEC2-C) and humanized anti-TM4SF5 antibody (hEC2-C-2) binding to hTM4SF5EC2-C cyclic peptide were measured at 25° C. using the Reichert SPR system. Biotinylated peptides were captured from each flowing cell surface of a streptoavidin-coated sensor chip. Biotin was used as a negative control. […] Data were evaluated using Reichert SPR evaluation software.

[3] = target: T2, hTM4SF5EC2-C cyclic peptide; assay: ELISA on coated hTM4SF5EC2-C, purified antibody titrated
[4] = target: T3, Myc-tagged recombinant human TM4SF5 protein (human, UniProt O14894 1-197); assay: Western blot of HEK 293F-EV and HEK 293F-TM4SF5 lysates with hybridoma culture supernatant
T3 construct: whole, on cells; tested in cell lysates by Western blot and immunoprecipitation, not on whole cells; also called hTM4SF5; recombinant TM4SF5 protein; not shown: C-terminal Myc-His tag of the vector pcDNA-3.1/Myc-His(-)B
T3 sequence (looked up): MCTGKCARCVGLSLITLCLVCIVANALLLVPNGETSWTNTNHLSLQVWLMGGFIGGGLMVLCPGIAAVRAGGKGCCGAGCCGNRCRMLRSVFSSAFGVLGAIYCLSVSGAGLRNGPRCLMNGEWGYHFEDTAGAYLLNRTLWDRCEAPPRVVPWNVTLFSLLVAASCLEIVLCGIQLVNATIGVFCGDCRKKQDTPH

[5] = target: T2, hTM4SF5EC2-C cyclic peptide; assay: SPR (Reichert SPR 7500DC), biotinylated peptide on streptavidin chip, antibody injected, 25 C
Protocol: (§1) The affinities of anti-hTM4SF5 monoclonal antibody (mEC2-C) and humanized anti-TM4SF5 antibody (hEC2-C-2) binding to hTM4SF5EC2-C cyclic peptide were measured at 25° C. using the Reichert SPR system. Biotinylated peptides were captured from each flowing cell surface of a streptoavidin-coated sensor chip. Biotin was used as a negative control. Anti-hTM4SF5 monoclonal antibody (mEC2-C) and humanized anti-TM4SF5 antibody were injected at a flow rate of […]. Data were evaluated using Reichert SPR evaluation software.

[6] = target: T2, hTM4SF5EC2-C cyclic peptide; assay: SPR, Kd of hEC2-C-2 against Kd of mEC2-C
Protocol: as §1

hTM4SF5R2-3 peptide [7] = target: T1, hTM4SF5R2-3 peptide; assay: ELISA on coated hTM4SF5R2-3, purified antibody titrated
[8] = target: T2, hTM4SF5EC2-C cyclic peptide; assay: SPR (Reichert SPR 7500DC), cyclic peptide hTM4SF5EC2-C on chip, antibody 0 to 3.75 nM, 1:1 binding with mass transfer
Protocol: as §1

[9] = target: T2, hTM4SF5EC2-C cyclic peptide; assay: ELISA on coated hTM4SF5EC2-C, purified antibody titrated

Binder	binding result (hTM4SF5R2-3 peptide [1])	Kd [2] [pM]	kon [2] [M⁻¹ s⁻¹]	EC50 (read off the curve) [3] [pM]	binding result [4]	Kd [5] [pM]	koff [5] [s⁻¹]	fold lower Kd than the original mouse monoclonal antibody mEC2-C [6] [fold]	binding result (hTM4SF5R2-3 peptide [7])	Kd [8] [pM]	koff [8] [s⁻¹]	kon [8] [M⁻¹ s⁻¹]	EC50 (read off the curve) [9] [pM]
B1	no binding (tested: 1e-6 M)	488	20500	~3000	binds	≤ 480	≤ 1e-05						
B2						~22.7		~20	no binding (tested: 1e-6 M)	22.7	1e-05	440000	~100
